Reference: paper PMC8042443, “PKCα-mediated phosphorylation of the diacylglycerol kinase ζ MARCKS domain switches cell migration modes by regulating interactions with Rac1 and RhoA” (The Journal of Biological Chemistry, 2021)

Columns and labels:
[1] = biological target: T1, GST fusion protein of constitutively active RhoA (RhoA^V14) (UniProt P61586 1-193, RhoA^V14); experiment: pull-down; GST fusion proteins immobilised on beads, incubated 1 to 2 h at 4 °C with lysates of MEFs expressing HA-tagged DGKζ constructs; washed at least four times with ice-cold lysis buffer; bound DGKζ detected by anti-HA immunoblot; in some panels cells were treated with vehicle, 100 nM PMA, or 1 μM Gö6976 before PMA; conditions: one partner purified
T1 construct: RhoA, constitutively active V14 mutant; cDNA from the Missouri S&T cDNA Resource Center, subcloned into pGEX-4T-3; also called GST-RhoA^V14; source: recombinant GST fusion (pGEX-4T-3), purified as described previously
T1 sequence (P61586 other isoform, or with tags, fused parts or gaps RhoA^V14 | RhoA^V14): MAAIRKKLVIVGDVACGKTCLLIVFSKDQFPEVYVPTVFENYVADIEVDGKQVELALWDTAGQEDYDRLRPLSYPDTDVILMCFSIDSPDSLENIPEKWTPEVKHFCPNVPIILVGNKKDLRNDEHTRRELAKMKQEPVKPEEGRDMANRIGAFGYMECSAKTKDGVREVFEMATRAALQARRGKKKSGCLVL

[2] = biological target: T2, GST fusion protein of inactive RhoA (RhoA^N19) (UniProt P61586 1-193, RhoA^N19); experiment: as above; conditions: one partner purified
T2 construct: cDNA from the Missouri S&T cDNA Resource Center, subcloned into pGEX-4T-3; also called GST-RhoA^N19; GST-RhoN^19; source: recombinant GST fusion (pGEX-4T-3), purified as described previously
T2 sequence (P61586 other isoform, or with tags, fused parts or gaps RhoA^N19 | RhoA^N19): as the sequence (P61586 other isoform, or with tags, fused parts or gaps RhoA^V14 | RhoA^V14) above, with V14G, T19N counted along it

B1: HA-tagged wild-type diacylglycerol kinase ζ (enzyme)
chain: not shown
notes: diacylglycerol kinase ζ (DGKζ), wild type; also called HA-DGKζ; HA-DGKζ^WT; source: MEFs, infected with adenoviral vector or transiently transfected, in lysate
- fold change of binding after PMA against vehicle control [1]: ~2 fold
- fold change of binding after PMA against vehicle control [2]: ~2 fold
